Measured values as given in US20080009025A1, “PROTEIN KINASE REGULATION” (priority 1999, published 2008).
Where a SMILES comes first, the peptide text is derived from it.

Legend:
PDK1 [1] = molecular target: T1, PDK1 (Homo sapiens, UniProt O15530); experiment: Phosphorylation of GST-p70 S6K-T2 by PDK1 in vitro (32P autoradiography); format: biochemical; parameters: made in house; host or cells: 293 cells or E. coli; details: GST fusion 1.5 μM; GST-PDK1 50 nM
T1 sequence (O15530 1-556): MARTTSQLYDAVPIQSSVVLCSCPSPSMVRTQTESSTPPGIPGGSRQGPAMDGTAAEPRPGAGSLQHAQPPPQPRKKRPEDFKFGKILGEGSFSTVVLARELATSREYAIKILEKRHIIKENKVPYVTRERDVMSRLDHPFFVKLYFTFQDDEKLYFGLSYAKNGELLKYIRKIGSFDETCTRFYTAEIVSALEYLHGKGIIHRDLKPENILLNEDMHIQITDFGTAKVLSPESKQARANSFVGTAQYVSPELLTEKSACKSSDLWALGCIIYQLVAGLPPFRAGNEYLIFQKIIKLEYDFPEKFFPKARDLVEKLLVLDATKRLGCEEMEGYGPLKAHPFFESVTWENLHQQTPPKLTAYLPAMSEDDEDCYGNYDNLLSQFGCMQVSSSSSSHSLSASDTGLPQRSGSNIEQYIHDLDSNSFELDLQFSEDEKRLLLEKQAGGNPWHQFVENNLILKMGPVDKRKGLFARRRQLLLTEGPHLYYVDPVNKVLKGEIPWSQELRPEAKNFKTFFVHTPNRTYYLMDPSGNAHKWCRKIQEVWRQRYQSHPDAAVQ
Method: FIG. 1. PIF prevents PDK1 from phosphorylating p70 S6K in vitro. GST-p70 S6K lacking the C-terminal 104 amino acids (GST-p70 S6KT2) (1 μg) was incubated for 30 min at 30° C. with Mg [γ^32P] ATP and GST-PDK1 (50 nM) in the presence or absence of either wild type (wt) GST-PIF or D978A GST-PIF (1.5 μM), or the indicated PIF peptides (4 μM) in a final volume of 20 μl. The reactions were terminated by making the solutions 1% in SDS, the samples subjected to SDS-polyacylamide gel electrophoresis, and the phosphorylation assessed by autoradiography of the gel. The position in the gel where GST-p70 S6KT2 (73 kDa) migrates is indicated with an arrow. The only other ^32P-labelled protein on the gel which is not shown, corresponded to autophosphorylation of PDK1 and contained ˜10 fold lower levels of ^32P-radioactivity than that of the GST-p70 S6T2 phosphorylated by PDK1 in the absence of PIF. A high amount of PDK1 is used in this experiment to achieve a near maximal phosphorylation of GST-p70 S6T2. If the reactions were carried out at a 10-fold lower concentration of PDK1 under conditions where the phosphorylation of GST-p70 S6T2 by PDK1 is linear with time and the amount of substrate used, then PIF still prevented the phosphorylation of GST-p70 S6T2 (data not shown). wt indicates wild type and PSer indicates phospho-serine. The results of a duplicate experiment for each condition are shown, and similar findings were obtained in five separate experiments.
Preparation of insect cell His-p70 S6K. p70 S6K with a His-epitope tag at its N-terminus lacking the carboxy terminal 104 residues is termed p70 S6K-T2. In order to prepare wild type and the mutant 412E-p70 S6K-T2 the cDNA for these constructs was amplified by PCR from the pMT2 vector encoding these forms of p70 S6K [6] using the following oligonucleotides: 5′-AGGATCCACCATGCACCATCACCATCACCATATGAGGCGAGCAAGGAGGCGG-3′ and 5′-GCGGCCGCTCAACTTTCAAGTACAGATGGAGCC-3′. The PCR products were then subcloned into the BamH1/Not1 sites of the pFASTBAC 1 vector and this vector was used to generate recombinant baculovirus using the Bac-to-Bac system (Life Technologies Inc). The resulting viruses, encoded p70 S6K-T2 or 412E-p70 S6K-T2 with an N-terminal hexahistidine sequence, and was used to infect Sf21 cells (1.5×10^6/m) at a multiplicity of infection of 5. The infected cells were harvested 72 h post-infection and the His-p70 S6K proteins purified by Ni^2+/NTA (nitrilotriacetic acid)-agarose chromatography as described previously for PKBβ [25]. […]

PDK1 [2] = details: ref [22]; cited from earlier work
PDK1 [3] = molecular target: T1, PDK1; experiment: Glutathione-Sepharose pull-down of PDK1 with S6K1 or SGK1 from 293 cells; format: binding; parameters: Full length PDK1 (residues 1-556); made in house; host or cells: 293 cells; details: Flag-tagged S6K1 forms; wild type GST-PDK1
Method: FIG. 21. Interaction of S6K1 and SGK1 with PDK1. 293 cells were transiently transfected with DNA constructs expressing GST, GST-PDK1 wt or PDK1 L155E together with constructs expressing either wild type or the indicated mutants or truncations of HA tagged S6K1 (A) or wild type GST-ΔN-SGK1 or 422D mutant. 36 h post transfection the cells were lysed and GST fusion protein was purified by affinity chromatography on glutathione-Sepharose beads. Aliquots were electrophoresed on a 10% SDS-polyacrylamide gel, stained with Coomassie Blue, or immunoblotted using an anti-FLAG antibody to detect FLAG-S6K1 and anti-Myc antibody to detect Myc-PDK1. To establish that the wild type and mutant proteins were expressed at similar levels, […] of total lysate was electrophoresed on a 10% SDS-polyacrylamide gel and immunoblotted using the indicated antibodies. Duplicates of each condition are shown. Similar results were obtained in two different experiments.
Binding of PDK1 to SGK1 and S6K1. For the data presented in FIG. 22, 293 cells were cotransfected with 10 μg of the wild type or mutant PDK1 plasmid and 10 μg of either the wild type or mutant S6K1 or SGK1. […] The gels were either stained with Coomassie blue, or analysed by immunoblotting with either anti-Flag or anti-Myc antibodies (described below).

PDK1 [4] = molecular target: T2, PDK1 (Homo sapiens, UniProt O15530); experiment: PDK1 activity towards synthetic peptide substrates T308tide or PDKtide; format: biochemical
T2 construct: Full length PDK1 (residues 1-556); made in house; host or cells: 293 cells
T2 sequence (O15530 52-556): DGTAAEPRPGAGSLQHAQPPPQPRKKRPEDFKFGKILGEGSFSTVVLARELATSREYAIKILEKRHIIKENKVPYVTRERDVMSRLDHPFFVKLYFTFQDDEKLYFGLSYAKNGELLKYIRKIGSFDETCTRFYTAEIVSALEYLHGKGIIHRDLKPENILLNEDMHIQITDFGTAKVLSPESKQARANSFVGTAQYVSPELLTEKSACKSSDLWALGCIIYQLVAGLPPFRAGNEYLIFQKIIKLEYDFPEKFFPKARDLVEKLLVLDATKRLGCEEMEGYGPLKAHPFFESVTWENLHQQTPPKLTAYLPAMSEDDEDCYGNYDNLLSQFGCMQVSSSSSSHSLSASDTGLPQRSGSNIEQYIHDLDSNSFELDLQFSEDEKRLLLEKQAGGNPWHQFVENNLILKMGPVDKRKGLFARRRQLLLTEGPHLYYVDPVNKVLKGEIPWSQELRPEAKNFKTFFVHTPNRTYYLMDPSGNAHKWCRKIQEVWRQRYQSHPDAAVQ
Method: FIG. 12. PDK1 is activated and stabilised through its interaction with PIFtide. (A) GST-PDK1 activity was measured in the presence of increasing concentrations of wild type (wt) PIFtide (closed circles) or a mutant D978A PIFtide (open circles) using the synthetic peptide substrate termed T308tide, as described in Material and Methods. The data was fitted to a hyperbola using the Kaleidagraph™ software. The connection needed to obtain 50% activation of PDK1 was […] for wt-PIFtide and 1.1 μM for D978A-PIFtide. The assay shown was performed in triplicate and there was less than 5% difference between each assay. Similar results were obtained in 2 further experiments (B)—The wild type GST-PDK1 (circles) or the L155D mutant of GST-PDK1 (squares) was incubated in the presence (closed symbols) or absence (open symbols) of […] PIFtife and then for 2 min at the indicated temperatures, rapidly brought to 0° C. (see Materials and Methods), and 2 min later assayed at 30° C. for 10 min using T308tide as substrate. The activity of PDK1 obtained by incubation at 30° C. was taken as 100%. The assay shown was performed in duplicate with similar results obtained in two separate experiments.
FIG. 14. […] (A) His-PDK1 was assayed for activity using as substrate the indicated concentration of either PDKtide (open triangles) or T308tide (open circles). (B) HIS-PDK1 was assayed for activity in the presence if PDKtide (25 μM closed triangles) or T308tide (100 μM closed circles) in the presence of the indicated concentrations of PIFtide. The assay was performed in triplicates with less than 5% difference between the triplicate samples. Similar results were obtained in 3 separate experiments.
PDK1's ability to phosphorylate Thr308 of PKBα was measured using a mutant of GST-PKBα in which Ser473 was mutated to Asp (GST-473D PKBα) in the presence of phospholipid vesicles containing sn-1-stearoyl-2-arachidonoyl-D-PtdIns (3, 4, 5)P3 [13]. The ability of wild type and mutant PDK1 to phosphorylate the synthetic peptides T308tide or PDKtide was carried out in 20 μl assays containing 50 mM Tris/HCl pH 7.5, 0.1% 2-mercaptoethanol 10 mM MgCl2, 100 μM [γ^32P]ATP (˜500 cpm/pmol) 0.5 μM microcystin-LR.PDK1 and the peptide concentrations indicated under Results. After incubation for 10 min at 30° C. the reaction was stopped by addition of 20 μl of 150 mM phosphoric acid. 35 μl of the resultant mixture was spotted into P81 phosphocellulose paper (2×2 cm) and the papers washed and analysed as described previously for assays of MAP kinase. […] Control assays were carried out in parallel in which either PDK1, or peptide substrate were omitted; these values were always less than 5% of the activity measured in the presence of these reagents. […]

PDK1 [5] = experiment: Yeast two-hybrid interaction with PDK1; format: binding, human; details: PDK1 L155 mutants
PDK1 [6] = molecular target: T1, PDK1; experiment: Yeast two-hybrid interaction with PDK1; format: binding; parameters: expressed in transfected cells; host or cells: Saccharomyces cerevisiae strain Y190; details: wild type PDK1

In the case of “GST-D978A-PIF: mutant GST-PIF in which the amino acid equivalent to Asp978 in PRK2 is mutated to Ala”, the “effect on phosphorylation of GST-p70 S6K-T2 by PDK1” value (PDK1 [1]) is given as “poorly inhibited” and the “affinity for PDK1 compared with wild type PIF” value (PDK1 [2]) is given as “markedly reduced affinity”.

With “full length S6K1[T412E]: Flag epitope tagged full length S6K1 with Thr412 to Glu” the “interaction with GST-PDK1” value (PDK1 [3]) was “failed to interact”.

For “KTFCGTPEYLAPEVRREPRILSEEEQEMFRDFDYLADWC [PDKtide, 39 amino acid polypeptide composed of T308tide fused to PIFtide]”, the “rate of phosphorylation by PDK1 relative to T308tide” value (PDK1 [4]; assayed at 100 μM) was “over 100 fold”.

Compound `CC(C)C[C@H](NC(=O)[C@H](Cc1ccc(O)cc1)NC(=O)[C@H](CCC(=O)O)NC(=O)[C@@H]1CCCN1C(=O)[C@@H](NC(=O)CNC(=O)[C@H](CS)NC(=O)[C@H](Cc1ccccc1)NC(=O)[C@@H](NC(=O)[C@@H](N)CCCCN)[C@@H](C)O)[C@@H](C)O)C(=O)N[C@@H](C)C(=O)N1CCC[C@H]1C(=O)N[C@@H](CCC(=O)O)C(=O)N[C@H](C(=O)N[C@@H](CCCNC(=N)N)C(=O)N[C@@H](CCCNC(=N)N)C(=O)O)C(C)C` [T308tide, KTFCGTPEYLAPEVRR, reference compound] (H-KTFCGTPEYLAPEVRR-OH) has a Km (PDK1 [4]; read-out: Km of PDK1 for peptide substrate) greater than 10 mM.

In the case of “PKACT: C-terminal fragment of PKA composed of residues 129-350”, the “two-hybrid interaction with L155S, L155D or L155E mutants of PDK1” value (PDK1 [5]) is reported as “greatly reduced” and the “two-hybrid interaction with full length PDK1” value (PDK1 [6]) is reported as “positive interaction”.

With “full length S6K1: Flag epitope tagged full length S6K1” the “interaction with GST-PDK1” value (PDK1 [3]) was “failed to interact”.
